Data as given in patent US20210214418A1.

Molecular target: chemokine receptor CXCR5 (overexpressed on CXCR5-CAR T cells) (UniProt P32302)
Assay: cell-based or functional assay

Sequence of UniProt P32302 (P32302 whole entry): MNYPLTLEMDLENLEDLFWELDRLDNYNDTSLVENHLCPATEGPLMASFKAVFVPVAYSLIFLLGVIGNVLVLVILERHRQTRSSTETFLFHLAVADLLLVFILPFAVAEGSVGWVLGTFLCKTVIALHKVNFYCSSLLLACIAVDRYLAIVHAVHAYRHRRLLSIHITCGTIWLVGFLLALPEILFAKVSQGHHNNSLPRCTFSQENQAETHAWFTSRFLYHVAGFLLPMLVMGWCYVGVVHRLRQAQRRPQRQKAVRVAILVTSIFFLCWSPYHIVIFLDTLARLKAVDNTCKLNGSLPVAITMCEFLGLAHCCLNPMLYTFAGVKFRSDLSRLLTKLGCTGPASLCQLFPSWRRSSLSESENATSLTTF

- radio-isotope signal at the CXCL13 positive tumor site, EGFR-CXCR5-CAR compared with EGFR-CAR, 72 h: 3 fold
- radio-isotope signal at the CXCL13 positive tumor site, EGFR-CXCR5-CAR compared with EGFR-CAR, 168 h: 7 fold
Substance: CXCL13 stably transfected in A549 cells (A549-CXCL13) (from UniProt O43927 23-109) (ligand)
